B1: probe 9 (OsPRR1_a, 12-nt deletion) (dsDNA)
DNA 1: CCAACGCCGCCGCCGC
DNA 2: GCGGCGGCGGCGTTGG
B2: OsPRR1-p1 (EE probe) (dsDNA)
DNA 1: GTAGGGGGAGGAAAATATCCTGTGCCAGTAG
DNA 2: CTACTGGCACAGGATATTTTCCTCCCCCTAC
B3: OsPRR1-p3 (EE probe) (dsDNA)
DNA 1: CATCTGGCTTAACCACGCCCGGCTCTC
DNA 2: GAGAGCCGGGCGTGGTTAAGCCAGATG
B4: OsPRR1-p2 (EE probe) (dsDNA)
DNA 1: GTTTCGTTTATTACACCGCCCCGG
DNA 2: CCGGGGCGGTGTAATAAACGAAAC

Chain of OsCCA1 DNA-binding (R/MYB) domain (A0A0P0XBU0 1-138): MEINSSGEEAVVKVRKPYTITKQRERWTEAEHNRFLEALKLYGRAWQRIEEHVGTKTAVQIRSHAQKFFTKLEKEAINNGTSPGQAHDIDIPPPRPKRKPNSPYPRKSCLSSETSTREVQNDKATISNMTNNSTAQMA

The series addresses OsCCA1 DNA-binding (R/MYB) domain (Oryza sativa (cDNA of Heidao), UniProt A0A0P0XBU0 1-138). Briefly: EMSA; EMSA: 10 uL with 2 uL 5x binding buffer (Invitrogen), 1.3 ug protein, 20 pmol probe, 23 C, 20 min; 10% native PAGE, 100 V about 70 min; gel stained for DNA and. To be noted: protein: recombinant; (pCold vector, Ni Sepharose).
Regarding B1, the binding result was “no binding”.
Next, B2: “binds”; B3: “binds”.
Next, B4: “binds”.
